Results reported in US6462173B1, “Inhibitors of phosphoserine and phosphothreonine-proline-specific isomerases” (Max-Planck-Gesellschaft zur Forderung der, priority 1997, dated 2002).

Molecular target: T1, Pin1 (Homo sapiens, UniProt Q13526)
T1 construct: fusion protein containing full length Pin1 was bacterially expressed, purified; made in house
Assay: Confirmation of interaction between Pin1 and predicted Pin1 substrates
Details: Pin1 binding confirmed in vitro (SC35 inferred from colocalization)
Description: On the basis of amino acid preferences deduced in the 6 positions surrounding the pS-P motif for optimal Pin1 binding, a weighted screening of the SWISS-PROT sequence database. Protein sequence database screening was performed with the program INDOVINATOR, using an entropy-based weighing technique to score for relative information content at each amino acid position flanking the pS/pT-P motif with the quantitative peptide library results, which are shown qualitatively in Table 3. […] Many of these proteins are involved in regulation of the cell cycle, cytoskeletal/spindle structure, DNA replication, transcription or RNA processing (Table 4).
Several of these predicted proteins, such as Rab4, Cdc25 and NIMA, undergo mitosis-specific phosphorylation (R. Heald and F. McKeon, Cell 61:579 (1990); E. Bailly, et al., Nature 350:715 (1991); A. Blangy, et al., Cell 83:1159 (1995): J. Kuang, et al., Mol. Biol. Cell 5:135 (1994); X. S. Ye, et al., EMBO J. 14:986 (1995)). Cdc25 and NIMA also binds to Pin1 in a phosphorylation-dependent manner, as described herein. Other proteins identified in this search, however, had not been previously suspected of interacting with Pin1; therefore, a few were further investigated as example cases. […] Thus, Pin1 binds a wide functional range of mitotic phosphoproteins.

T1 sequence (Q13526 whole entry, the tested form may be a part): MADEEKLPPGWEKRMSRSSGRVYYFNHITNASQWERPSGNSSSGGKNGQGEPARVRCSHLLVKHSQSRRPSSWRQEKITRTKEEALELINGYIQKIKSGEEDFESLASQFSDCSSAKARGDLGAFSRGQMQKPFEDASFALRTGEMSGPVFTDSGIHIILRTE

B1: Splicing factor SC35: nuclear/splicing protein, predicted Pin1 substrate (protein, UniProt Q01130 2-221, looked up)
Serine/arginine-rich splicing …: SYGRPPPDVEGMTSLKVDNLTYRTSPDTLRRVFEKYGRVGDVYIPRDRYTKESRGFAFVRFHDKRDAEDAMDAMDGAVLDGRELRVQMARYGRPPDSHHSRRGPPPRRYGGGGYGRRSRSPRRRRRSRSRSRSRSRSRSRSRYSRSKSRSRTRSRSRSTSKSRSARRSKSKSSSVSRSRSRSRSRSRSRSPPPVSKRESKSRSRSKSPPKSPEEEGAVSS
Binding Confirmed: Yes

B2: E-MAP-115: cytoskeletal/spindle protein, predicted Pin1 substrate (protein, UniProt Q14244 2-749, looked up)
Ensconsin: AELGAGGDGHRGGDGAVRSETAPDSYKVQDKKNASSRPASAISGQNNNHSGNKPDPPPVLRVDDRQRLARERREEREKQLAAREIVWLEREERARQHYEKHLEERKKRLEEQRQKEERRRAAVEEKRRQRLEEDKERHEAVVRRTMERSQKPKQKHNRWSWGGSLHGSPSIHSADPDRRSVSTMNLSKYVDPVISKRLSSSSATLLNSPDRARRLQLSPWESSVVNRLLTPTHSFLARSKSTAALSGEAASCSPIIMPYKAAHSRNSMDRPKLFVTPPEGSSRRRIIHGTASYKKERERENVLFLTSGTRRAVSPSNPKARQPARSRLWLPSKSLPHLPGTPRPTSSLPPGSVKAAPAQVRPPSPGNIRPVKREVKVEPEKKDPEKEPQKVANEPSLKGRAPLVKVEEATVEERTPAEPEVGPAAPAMAPAPASAPAPASAPAPAPVPTPAMVSAPSSTVNASASVKTSAGTTDPEEATRLLAEKRRLAREQREKEERERREQEELERQKREELAQRVAEERTTRREEESRRLEAEQAREKEEQLQRQAEERALREREEAERAQRQKEEEARVREEAERVRQEREKHFQREEQERLERKKRLEEIMKRTRRTEATDKKTSDQRNGDIAKGALTGGTEVSALPCTTNAPGNGKPVGSPHVVTSHQSKVTVESTPDLEKQPNENGVSVQNENFEEIINLPIGSKPSRLDVTNSESPEIPLNPILAFDDEGTLGPLPQVDGVQTQQTAEVI
Binding Confirmed: Yes
